Data on 2 molecules can be found in US7238857, “Ethylene-responsive transcription coactivators in plants” (Japan and Science and Technology Agency).

The target of data set [1] is T1, ERF2 (Nicotiana tabacum, UniProt Q40479 Q40479:1-233). Nature of the data set: competition; 10 ng unlabeled mERE did not inhibit ERF2-ERE complex. The conditions noted are these: tags: His tag (pET15b, Novagen); GATC 5' overhangs. The text has this:
The binding activity of ERF2 to ERE was investigated using gel-shift assays. The DNA fragment containing a 53 bp wild-type ethylene-responsive element (ERE) was used as a DNA probe after labeled with a radioactive tracer using (γ^-32P)ATP and T4-polynucleotide kinase (Takara Bio INC., Kyoto, Japan). Multi-copied and linked ERE (SEQ ID NO: 3 and 4) or mERE (SEQ ID NO: 5 and 6) fragments (FIG. 1) were used as wild-type and mutant-type competitors, respectively. mERE (mutant-type) was similar to ERE (wild-type), except that the DNA nucleotide sequence in the GCC box contains base substitutions. The mixture of 1 ng of radio-labeled DNA probe (1,000 to 10,000 cpm) and 10 ng of recombinant ERF without or with 10 ng of a competitor DNA in 10 µl of the binding buffer shown in Table 1 was incubated for 45 minutes at 25° C.
The samples after binding reaction were subjected to 4% polyacrylamide gel electrophoresis (acrylamide:bisacrylamide=39:1, 1 mm in thickness, 13 cm long) containing 0.25×TB buffer (22.5 mM Tris-borate, pH 8.0) at 25° C. for 3 hrs at 100 V. The gel was dried and exposed to Fuji Imaging Plate® (Fuji Photo Film Co. Ltd., Kanagawa, JAPAN; a radiosensitive layer of phosphor crystals on a polyester backing plate). The electrophoresis mobility pattern was visualized using Bio-Image Analyzer (Fuji Photo Film Co. Ltd., Kanagawa, JAPAN). […]

The target of data set [2] is T1, ERF2. Nature of the data set: in vitro transcription activation of pERE in HeLa nuclear extract with tTBP. The conditions noted are these: tags: His tag (pET15b, Novagen); label: 32P 5' end; GATC 5' overhangs. Here is the method: (§1) Moreover, the in vitro transcription reaction was assayed in the following way. The HeLa nuclear extracts used for the in vitro transcription were prepared as reported previously (Meth. Enzymol. 101:582–598(1983)).
The transcription reaction mixture was incubated for 60 min at 30° C. and 75 µl of the reaction stopping solution (Table 2) was added to stop the reaction. Then, 100 µl of PCIAA (50% phenol, 48% chloroform, 2% isoamilalcohol) was added to the reaction mixture to recover the aqueous phase. After that, 100 µl of CIAA (96% chloroform, 4% isoamilalcohol) was added to the aqueous phase and the aqueous phase was recovered. Then, 10 µl of 3 M sodium acetate and 300 µl of ethyl alcohol were added to the aqueous phase to precipitate nucleic acid. The nucleic acid was dried and was dissolved in 10 µl of urea solution (5M urea, 1 mM EDTA, 0.1% bromophenol blue). The nucleic acid sample was subjected to electrophoresis using 6% polyacrylamide gel (acrylamide:bisacrylamide=19:1, 1 mm of thickness, 12.5 cm long) containing 89 mM Tris-borate (pH 8.3), 2 mM EDTA and 8 M urea at 300 V. When bromophenol blue in the sample had migrated to the lowest edge of the gel, the gel was removed and was soaked in 1 L of water containing 5% methanol and 5% acetic acid and then in 1 L of water containing 5% methanol, each for 20 min. […]

The target of data set [3] is ERF3 (Nicotiana tabacum, UniProt Q40477 Q40477:1-225). Nature of the data set: in vitro transcription activation of pERE in HeLa nuclear extract. The conditions noted are these: tags: His tag (pET15b, Novagen); label: 32P 5' end; GATC 5' overhangs. Here is the method:
as §1
(§2) The transcription reaction mixture was incubated for 60 min at 30° C. and 75 µl of the reaction stopping solution (Table 2) was added to stop the reaction. Then, 100 µl of PCIAA (50% phenol, 48% chloroform, 2% isoamilalcohol) was added to the reaction mixture to recover the aqueous phase. After that, 100 µl of CIAA (96% chloroform, 4% isoamilalcohol) was added to the aqueous phase and the aqueous phase was recovered. Then, 10 µl of 3 M sodium acetate and 300 µl of ethyl alcohol were added to the aqueous phase to precipitate nucleic acid. The nucleic acid was dried and was dissolved in 10 µl of urea solution (5M urea, 1 mM EDTA, 0.1% bromophenol blue). The nucleic acid sample was subjected to electrophoresis using 6% polyacrylamide gel (acrylamide:bisacrylamide=19:1, 1 mm of thickness, 12.5 cm long) containing 89 mM Tris-borate (pH 8.3), 2 mM EDTA and 8 M urea at 300 V. When bromophenol blue in the sample had migrated to the lowest edge of the gel, the gel was removed and was soaked in 1 L of water containing 5% methanol and 5% acetic acid and then in 1 L of water containing 5% methanol, each for 20 min. Then, the gel was attached to a filter paper, dried and exposed to Fuji Imaging Plate overnight. RNA was visualized using Bio Image Analyzer.
(§3) As in the case of reference example 2, the inventors examined the activity of transcriptional activation of other ERFs. […] The activity of transcriptional activation of each ERF was as follows; amplification by ERF3, 3 fold; that by ERF4, 3.5 fold; that by ERF1, 4 fold; that by ERF2, 5 fold.

In data set [4] the target is ERF1 (Nicotiana tabacum, UniProt Q40476 Q40476:1-236). The description is as above. The conditions noted are these: tags: His tag (pET15b, Novagen); label: 32P 5' end; GATC 5' overhangs. Here is the method: as §1, §2, §3
Chain of ERF1 (Q40476 whole entry, one chain of several): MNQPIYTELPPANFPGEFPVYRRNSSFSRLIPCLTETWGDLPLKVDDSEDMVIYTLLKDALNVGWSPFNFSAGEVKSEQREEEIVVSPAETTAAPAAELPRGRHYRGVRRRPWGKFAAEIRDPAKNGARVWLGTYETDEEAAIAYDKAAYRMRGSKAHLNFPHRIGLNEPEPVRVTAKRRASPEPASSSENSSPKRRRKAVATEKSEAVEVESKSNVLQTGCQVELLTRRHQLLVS
In data set [5] the target is ERF4 (Nicotiana tabacum, UniProt Q40478 Q40478:1-291). The data set is described as above. The conditions noted are these: tags: His tag (pET15b, Novagen); label: 32P 5' end; GATC 5' overhangs. How it is done: as §1, §2, §3
Chain of ERF4 (Q40478 whole entry, one chain of several): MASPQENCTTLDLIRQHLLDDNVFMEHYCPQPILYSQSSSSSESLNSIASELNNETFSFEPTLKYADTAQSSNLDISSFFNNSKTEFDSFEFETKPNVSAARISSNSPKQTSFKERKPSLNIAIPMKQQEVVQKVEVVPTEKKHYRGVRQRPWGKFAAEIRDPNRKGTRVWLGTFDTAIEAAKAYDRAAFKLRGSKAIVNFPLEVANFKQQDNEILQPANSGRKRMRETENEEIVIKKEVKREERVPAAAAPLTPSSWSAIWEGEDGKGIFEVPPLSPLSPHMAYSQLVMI

T1 sequence (Q40479 whole entry, the tested form may be a part, one chain of several): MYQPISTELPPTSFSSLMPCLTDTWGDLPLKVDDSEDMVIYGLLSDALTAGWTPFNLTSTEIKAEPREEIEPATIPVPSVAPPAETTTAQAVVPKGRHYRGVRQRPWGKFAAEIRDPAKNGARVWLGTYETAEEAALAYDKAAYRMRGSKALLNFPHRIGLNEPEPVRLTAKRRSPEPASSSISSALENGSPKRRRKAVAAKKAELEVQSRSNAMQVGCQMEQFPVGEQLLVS
Chain of ERF3 (Q40477 whole entry, one chain of several): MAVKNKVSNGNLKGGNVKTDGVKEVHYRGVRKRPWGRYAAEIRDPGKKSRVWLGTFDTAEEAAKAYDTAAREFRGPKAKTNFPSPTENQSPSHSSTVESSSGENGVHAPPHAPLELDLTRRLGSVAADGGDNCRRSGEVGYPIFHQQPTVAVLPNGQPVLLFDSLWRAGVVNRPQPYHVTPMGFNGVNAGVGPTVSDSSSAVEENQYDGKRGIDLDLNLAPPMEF

B1: mERE (mutant GCC box) (dsDNA)
DNA 1: GATCTCATAAGATCCTCCACTAAAATAAGACCGATCAAATAAGATCCTCCATG
DNA 2: GATCCATGGAGGATCTTATTTGATCGGTCTTATTTTAGTGGAGGATCTTATGA
For B1, the binding result in data set [1] was “no binding”.

B2: ERE (2x GCC box) (dsDNA)
DNA 1: GATCTCATAAGAGCCGCCACTAAAATAAGACCGATCAAATAAGAGCCGCCATG
DNA 2: GATCCATGGCGGCTCTTATTTGATCGGTCTTATTTTAGTGGCGGCTCTTATGA
As for B2, the activity was found to be 5 fold in data set [2], 3 fold in data set [3], 4 fold in data set [4] and 3.5 fold in data set [5].
